The record followed here is article PMC4958977, “Revisiting the mechanism of coagulation factor XIII activation and regulation from a structure/functional perspective” (Scientific Reports, 2016).

This data set concerns the molecule itself. The data set can be described thus: SEC; 25 ug purified FXIIIA2B2 incubated with 46.2 U/mL thrombin and 25 mM CaCl2, 20 mM Tris, 120 mM NaCl, pH 7.4, 60 minutes at 30 degrees; Superdex 200 PC 3.2/30; peaks checked by native PAGE and mass spectrometry. A general note: In gel filtration, larger molecules generally elute earlier.

B1: coagulation factor XIII B subunit (natural protein, human, UniProt P05160 21-661, looked up)
chain: EEKPCGFPHVENGRIAQYYYTFKSFYFPMSIDKKLSFFCLAGYTTESGRQEEQTTCTTEGWSPEPRCFKKCTKPDLSNGYISDVKLLYKIQENMRYGCASGYKTTGGKDEEVVQCLSDGWSSQPTCRKEHETCLAPELYNGNYSTTQKTFKVKDKVQYECATGYYTAGGKKTEEVECLTYGWSLTPKCTKLKCSSLRLIENGYFHPVKQTYEEGDVVQFFCHENYYLSGSDLIQCYNFGWYPESPVCEGRRNRCPPPPLPINSKIQTHSTTYRHGEIVHIECELNFEIHGSAEIRCEDGKWTEPPKCIEGQEKVACEEPPFIENGAANLHSKIYYNGDKVTYACKSGYLLHGSNEITCNRGKWTLPPECVENNENCKHPPVVMNGAVADGILASYATGSSVEYRCNEYYLLRGSKISRCEQGKWSSPPVCLEPCTVNVDYMNRNNIEMKWKYEGKVLHGDLIDFVCKQGYDLSPLTPLSELSVQCNRGEVKYPLCTRKESKGMCTSPPLIKHGVIISSTVDTYENGSSVEYRCFDHHFLEGSREAYCLDGMWTTPPLCLEPCTLSFTEMEKNNLLLKWDFDNRPHILHGEYIEFICRGDTYPAELYITGSILRMQCDRGQLKYPRCIPRQSTLSYQEPLRT
notes: human coagulation factor XIII B subunit from plasma, ten Sushi domains; 80 kDa; also called FXIIIB; FXIIIB2; source: purified as FXIIIA2B2 from plasma concentrate Fibrogammin P (CSL Behring), gel filtration on Superdex 200
Regarding B1, the binding result is on record as “binds”.
